The values below come from the supplement of paper PMC5998384.

The test system of data set [1] is HeLa Kyoto. In words: solubility in G1/S (NP-40 vs SDS abundance) (log2 ratio); higher = more soluble. The settings on record: cell cycle stage: G1/S.
Data set [2] relates to HeLa Kyoto. The data set can be described thus: thermal stability score vs G1/S (z-score of summed log2 fold changes over temperatures); higher = more thermally stable than in G1/S.
In data set [3] the test system is HeLa Kyoto. In words: solubility change mitosis vs G1/S (difference of NP-40 vs SDS log2 ratios) (log2 ratio difference); higher = more soluble in mitosis.
Data set [4] has as its system HeLa Kyoto. In words: melting temperature (median over replicates), in situ; higher = more thermally stable.
Where [5] appears, read: cell cycle stage: early G1 (4.5 h after nocodazole release).
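Throughout, for melting temperature (median over replicates), in situ: HeLa Kyoto cells synchronized by double thymidine or nocodazole block, proteins quantified by TMT10plex mass spectrometry, three independent biological replicates.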
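Throughout, for solubility change mitosis vs G1/S (difference of NP-40 vs SDS log2 ratios): synchronized HeLa Kyoto cells (double thymidine block for G1/S, nocodazole release for mitosis), protein amounts in NP-40 versus SDS lysates quantified by mass spectrometry, three biological replicates.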
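Throughout, for solubility in G1/S (NP-40 vs SDS abundance): HeLa Kyoto cells arrested at G1/S by double thymidine block, proteins quantified by TMT10plex mass spectrometry in mild NP-40 versus SDS extracts, three biological replicates.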
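Throughout, for thermal stability score vs G1/S (z-score of summed log2 fold changes over temperatures): synchronized HeLa Kyoto cells, proteins quantified by TMT10plex mass spectrometry, three biological replicates, mitosis taken 0.5 h after nocodazole release, G1/S directly after double thymidine block.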

With “MAASQTSQTVASHVPFADLCSTLERIQKSKGRAEKIRHFREFLDSWRKFHDALHKNHKDVTDSFYPAMRLILPQLERERMAYGIKETMLAKLYIELLNLPRDGKDALKLLNYRTPTGTHGDAGDFAMIAYFVLKPRCLQKGSLTIQQVNDLLDSIASNNSAKRKDLIKKSLLQLITQSSALEQKWLIRMIIKDLKLGVSQQTIFSVFHNDAAELHNVTTDLEKVCRQLHDPSVGLSDISITLFSAFKPMLAAIADIEHIEKDMKHQSFYIETKLDGERMQMHKDGDVYKYFSRNGYNYTDQFGASPTEGSLTPFIHNAFKADIQICILDGEMMAYNPNTQTFMQKGTKFDIKRMVEDSDLQTCYCVFDVLMVNNKKLGHETLRKRYEILSSIFTPIPGRIEIVQKTQAHTKNEVIDALNEAIDKREEGIMVKQPLSIYKPDKRGEGWLKIKPEYVSGLMDELDILIVGGYWGKGSRGGMMSHFLCAVAEKPPPGEKPSVFHTLSRVGSGCTMKELYDLGLKLAKYWKPFHRKAPPSSILCGTEKPEVYIEPCNSVIVQIKAAEIVPSDMYKTGCTLRFPRIEKIRDDKEWHECMTLDDLEQLRGKASGKLASKHLYIGGDDEPQEKKRKAAPKMKKVIGIIEHLKAPNLTNVNKISNIFEDVEFCVMSGTDSQPKPDLENRIAEFGGYIVQNPGPDTYCVIAGSENIRVKNIILSNKHDVVKPAWLLECFKTKSFVPWQPRFMIHMCPSTKEHFAREYDCYGDSYFIDTDLNQLKEVFSGIKNSNEQTPEEMASLIADLEYRYSWDCSPLSMFRRHTVYLDSYAVINDLSTKNEGTRLAIKALELRFHGAKVVSCLAEGVSHVIIGEDHSRVADFKAFRRTFKRKFKILKESWVTDSIDKCELQEENQYLI [LIG4]”, the “solubility in G1/S (log2)” value in the data set on HeLa Kyoto [1] is -0.0399. Further, the thermal stability score in the data set with HeLa Kyoto [2] (setting [5]) was 0.0186; in the data set with HeLa Kyoto [2] (cell cycle stage: mitosis), 0.758. Besides, the “solubility change mitosis (log2)” value in the data set with HeLa Kyoto [3] was -0.329. The values for the melting temperature in the data set on HeLa Kyoto [4] (cell cycle stage: G1/S) and with HeLa Kyoto [4] (cell cycle stage: mitosis) were 48.4 °C and 49.6 °C, respectively.

Turning to “MVVTRSARAKASIQAASAESSGQKSFAANGIQAHPESSTGSDARTTAESQTTGKQSLIPRTPKARKRKSRTTGSLPKGTEPSTDGETSEAESNYSVSEHHDTILRVTRRRQILIACSPVSSVRKKPKVTPTKESYTEEIVSEAESHVSGISRIVLPTEKTTGARRSKAKSLTDPSQESHTEAISDAETSSSDISFSGIATRRTRSMQRKLKAQTEKKDSKIVPGNEKQIVGTPVNSEDSDTRQTSHLQARSLSEINKPNFYNNDFDDDFSHRSSENILTVHEQANVESLKETKQNCKDLDEDANGITDEGKEINEKSSQLKNLSELQDTSLQQLVSQRHSTPQNKNAVSVHSNLNSEAVMKSLTQTFATVEVGRWNNNKKSPIKASDLTKFGDCGGSDDEEESTVISVSEDMNSEGNVDFECDTKLYTSAPNTSQGKDNSVLLVLSSDESQQSENSENEEDTLCFVENSGQRESLSGDTGSLSCDNALFVIDTTPGMSADKNFYLEEEDKASEVAIEEEKEEEEDEKSEEDSSDHDENEDEFSDEEDFLNSTKAKLLKLTSSSIDPGLSIKQLGGLYINFNADKLQSNKRTLTQIKEKKKNELLQKAVITPDFEKNHCVPPYSESKYQLQKKRRKERQKTAGDGWFGMKAPEMTNELKNDLKALKMRASMDPKRFYKKNDRDGFPKYFQIGTIVDNPADFYHSRIPKKQRKRTIVEELLADSEFRRYNRRKYSEIMAEKAANAAGKKFRKKKKFRN [DNTTIP2]”, the “solubility in G1/S (log2)” value with HeLa Kyoto [1] is -2.06. In addition, the values for the thermal stability score in the data set with HeLa Kyoto [2] (setting [5]) and in the data set on HeLa Kyoto [2] (cell cycle stage: mitosis) were 2.7 and 4.77, respectively. Further, the “solubility change mitosis (log2)” value in the data set on HeLa Kyoto [3] stood at 1.04. The melting temperature in the data set with HeLa Kyoto [4] (cell cycle stage: G1/S) was determined as 48.9 °C; with HeLa Kyoto [4] (cell cycle stage: mitosis), 52.4 °C.

Turning to “MDAGFFRGTSAEQDNRFSNKQKKLLKQLKFAECLEKKVDMSKVNLEVIKPWITKRVTEILGFEDDVVIEFIFNQLEVKNPDSKMMQINLTGFLNGKNAREFMGELWPLLLSAQENIAGIPSAFLELKKEEIKQRQIEQEKLASMKKQDEDKDKRDKEEKESSREKRERSRSPRRRKSRSPSPRRRSSPVRRERKRSHSRSPRHRTKSRSPSPAPEKKEKTPELPEPSVKVKEPSVQEATSTSDILKVPKPEPIPEPKEPSPEKNSKKEKEKEKTRPRSRSRSKSRSRTRSRSPSHTRPRRRHRSRSRSYSPRRRPSPRRRPSPRRRTPPRRMPPPPRHRRSRSPVRRRRRSSASLSGSSSSSSSSRSRSPPKKPPKRTSSPPRKTRRLSPSASPPRRRHRPSPPATPPPKTRHSPTPQQSNRTRKSRVSVSPGRTSGKVTKHKGTEKRESPSPAPKPRKVELSESEEDKGGKMAAADSVQQRRQYRRQNQQSSSDSGSSSSSEDERPKRSHVKNGEVGRRRRHSPSRSASPSPRKRQKETSPRGRRRRSPSPPPTRRRRSPSPAPPPRRRRTPTPPPRRRTPSPPPRRRSPSPRRYSPPIQRRYSPSPPPKRRTASPPPPPKRRASPSPPPKRRVSHSPPPKQRSSPVTKRRSPSLSSKHRKGSSPSRSTREARSPQPNKRHSPSPRPRAPQTSSSPPPVRRGASSSPQRRQSPSPSTRPIRRVSRTPEPKKIKKAASPSPQSVRRVSSSRSVSGSPEPAAKKPPAPPSPVQSQSPSTNWSPAVPVKKAKSPTPSPSPPRNSDQEGGGKKKKKKKDKKHKKDKKHKKHKKHKKEKAVAAAAAAAVTPAAIAAATTTLAQEEPVAAPEPKKETESEAEDNLDDLEKHLREKALRSMRKAQVSPQS [SRRM1]”, in the data set on HeLa Kyoto [1], the “solubility in G1/S (log2)” value is -1.06. Further, the thermal stability score with HeLa Kyoto [2] (setting [5]) was -6.13; in the data set on HeLa Kyoto [2] (cell cycle stage: mitosis), -6.36. Also, the “solubility change mitosis (log2)” value with HeLa Kyoto [3] was found to be 1.02. The melting temperature was 51.3 °C in the data set with HeLa Kyoto [4] (cell cycle stage: G1/S) and 50 °C in the data set with HeLa Kyoto [4] (cell cycle stage: mitosis).

For the sequence “MADHSFSDGVPSDSVEAAKNASNTEKLTDQVMQNPRVLAALQERLDNVPHTPSSYIETLPKAVKRRINALKQLQVRCAHIEAKFYEEVHDLERKYAALYQPLFDKRREFITGDVEPTDAESEWHSENEEEEKLAGDMKSKVVVTEKAAATAEEPDPKGIPEFWFTIFRNVDMLSELVQEYDEPILKHLQDIKVKFSDPGQPMSFVLEFHFEPNDYFTNSVLTKTYKMKSEPDKADPFSFEGPEIVDCDGCTIDWKKGKNVTVKTIKKKQKHKGRGTVRTITKQVPNESFFNFFNPLKASGDGESLDEDSEFTLASDFEIGHFFRERIVPRAVLYFTGEAIEDDDNFEEGEEGEEEELEGDEEGEDEDDAEINPKV [NAP1L4]”, the “solubility in G1/S (log2)” value with HeLa Kyoto [1] came out at 0.455. The thermal stability score in the data set on HeLa Kyoto [2] (setting [5]) was determined as 1.4; with HeLa Kyoto [2] (cell cycle stage: mitosis), 0.831. Moreover, in the data set on HeLa Kyoto [3], the “solubility change mitosis (log2)” value was -0.0294. The melting temperature came to 51.4 °C with HeLa Kyoto [4] (cell cycle stage: G1/S) and 51.7 °C with HeLa Kyoto [4] (cell cycle stage: mitosis).

Consider “MSAPAGSSHPAASARIPPKFGGAAVSGAAAPAGPGAGPAPHQQNGPAQNQMQVPSGYGLHHQNYIAPSGHYSQGPGKMTSLPLDTQCGDYYSALYTVPTQNVTPNTVNQQPGAQQLYSRGPPAPHIVGSTLGSFQGAASSASHLHTSASQPYSSFVNHYNSPAMYSASSSVASQGFPSTCGHYAMSTVSNAAYPSVSYPSLPAGDTYGQMFTSQNAPTVRPVKDNSFSGQNTAISHPSPLPPLPSQQHHQQQSLSGYSTLTWSSPGLPSTQDNLIRNHTGSLAVANNNPTITVADSLSCPVMQNVQPPKSSPVVSTVLSGSSGSSSTRTPPTANHPVEPVTSVTQPSELLQQKGVQYGEYVNNQASSAPTPLSSTSDDEEEEEEDEEAGVDSSSTTSSASPMPNSYDALEGGSYPDMLSSSASSPAPDPAPEPDPASAPAPASAPAPVVPQPSKMAKPFGYGYPTLQPGYQNATAPLISGVQPSNPVYSGFQQYPQQYPGVNQLSSSIGGLSLQSSPQPESLRPVNLTQERNILPMTPVWAPVPNLNADLKKLNCSPDSFRCTLTNIPQTQALLNKAKLPLGLLLHPFRDLTQLPVITSNTIVRCRSCRTYINPFVSFIDQRRWKCNLCYRVNDVPEEFMYNPLTRSYGEPHKRPEVQNSTVEFIASSDYMLRPPQPAVYLFVLDVSHNAVEAGYLTILCQSLLENLDKLPGDSRTRIGFMTFDSTIHFYNLQEGLSQPQMLIVSDIDDVFLPTPDSLLVNLYESKELIKDLLNALPNMFTNTRETHSALGPALQAAFKLMSPTGGRVSVFQTQLPSLGAGLLQSREDPNQRSSTKVVQHLGPATDFYKKLALDCSGQQTAVDLFLLSSQYSDLASLACMSKYSAGCIYYYPSFHYTHNPSQAEKLQKDLKRYLTRKIGFEAVMRIRCTKGLSMHTFHGNFFVRSTDLLSLANINPDAGFAVQLSIEESLTDTSLVCFQTALLYTSSKGERRIRVHTLCLPVVSSLADVYAGVDVQAAICLLANMAVDRSVSSSLSDARDALVNAVVDSLSAYGSTVSNLQHSALMAPSSLKLFPLYVLALLKQKAFRTGTSTRLDDRVYAMCQIKSQPLVHLMKMIHPNLYRIDRLTDEGAVHVNDRIVPQPPLQKLSAEKLTREGAFLMDCGSVFYIWVGKGCDNNFIEDVLGYTNFASIPQKMTHLPELDTLSSERARSFITWLRDSRPLSPILHIVKDESPAKAEFFQHLIEDRTEAAFSYYEFLLHVQQQICK [SEC24B]”, for which the “solubility in G1/S (log2)” value in the data set with HeLa Kyoto [1] is -0.132. In addition, the thermal stability score was 1.03 with HeLa Kyoto [2] (setting [5]) and 1.85 in the data set on HeLa Kyoto [2] (cell cycle stage: mitosis). Also, in the data set on HeLa Kyoto [3], the “solubility change mitosis (log2)” value is -0.119. Besides, the melting temperature in the data set with HeLa Kyoto [4] (cell cycle stage: G1/S) was 48.8 °C; in the data set on HeLa Kyoto [4] (cell cycle stage: mitosis), 49.5 °C.
